Laboratory results reported in article PMC8141814 (Frontiers in Molecular Biosciences, 2021).

Target: GS-nsp5 C145A (GS added nsp5 construct with the active site mutation C145A) (SARS-CoV-2)
Test: NMR, 2D [15N,1H]-BEST-TROSY spectra compared

GS-nsp5 C145A (GS added nsp5 construct with the active site mutation C145A) (enzyme)
stoichiometry N: 2
